Data reported in patent publication EP4613775A1 (Eberhard Karls Universität Tübingen Medizinische Fakultät, dated 2025).
Blank lines part the entries; values can stand above or below the binder they belong to.

Tests used:
[1] = molecular target: T1, KIFC3 peptide SWSSQEHLEWEPACQ (human); assay: peptide microarray epitope mapping (binding stretch)
T1 peptide: SWSSQEHLEWEPACQ

[2] = molecular target: T2, KIFC3 peptide EYTITVSAAEIYNEV (human); assay: as above
T2 peptide: EYTITVSAAEIYNEV

[3] = molecular target: T3, KIFC3 peptide LGSWSSQEHLEWEPA (human); assay: as above
T3 peptide: LGSWSSQEHLEWEPA

[4] = molecular target: T4, KIFC3 peptide DWEYTITVSAAEIYN (human); assay: as above
T4 peptide: DWEYTITVSAAEIYN

[5] = molecular target: T5, KIFC3 peptide AELGSWSSQEHLEWE (human); assay: as above
T5 peptide: AELGSWSSQEHLEWE

[6] = molecular target: T6, KIFC3 peptide ASDWEYTITVSAAEI (human); assay: as above
T6 peptide: ASDWEYTITVSAAEI

aminoacylase 3 = molecular target: T7, aminoacylase 3 (human, UniProt Q96HD9 1-319); assay: custom ELISA
T7 construct: Also the protein of the custom ELISA; also called ACY3
T7 sequence (looked up): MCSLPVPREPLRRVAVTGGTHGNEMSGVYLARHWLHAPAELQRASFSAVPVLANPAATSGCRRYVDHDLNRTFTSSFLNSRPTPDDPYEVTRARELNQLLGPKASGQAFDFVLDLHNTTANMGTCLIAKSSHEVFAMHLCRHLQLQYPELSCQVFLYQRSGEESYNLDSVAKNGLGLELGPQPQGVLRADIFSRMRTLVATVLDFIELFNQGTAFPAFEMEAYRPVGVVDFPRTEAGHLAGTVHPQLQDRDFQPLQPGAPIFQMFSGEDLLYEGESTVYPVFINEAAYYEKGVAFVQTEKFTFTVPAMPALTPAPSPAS

[7] = molecular target: T8, AKR1A1 peptide YIVPMLTVDGKRVPR (human); assay: peptide microarray epitope mapping (binding stretch)
T8 peptide: YIVPMLTVDGKRVPR

[8] = molecular target: T9, AKR1A1 peptide VPMLTVDGKRVPRDA (human); assay: as above
T9 peptide: VPMLTVDGKRVPRDA

[9] = molecular target: T10, AKR1A1 peptide LEYLDLYLMHWPYAF (human); assay: as above
T10 peptide: LEYLDLYLMHWPYAF

[10] = molecular target: T11, AKR1A1 peptide TLADLQLEYLDLYLM (human); assay: as above
T11 peptide: TLADLQLEYLDLYLM

[11] = molecular target: T12, AKR1A1 peptide MLTVDGKRVPRDAGH (human); assay: as above
T12 peptide: MLTVDGKRVPRDAGH

[12] = molecular target: T13, AKR1A1 peptide ADLQLEYLDLYLMHW (human); assay: as above
T13 peptide: ADLQLEYLDLYLMHW

[13] = molecular target: T14, AKR1A1 peptide LQLEYLDLYLMHWPY (human); assay: as above
T14 peptide: LQLEYLDLYLMHWPY

[14] = molecular target: T15, AKR1A1 peptide WRYIVPMLTVDGKRV (human); assay: as above
T15 peptide: WRYIVPMLTVDGKRV

[15] = molecular target: T16, AKR1A1 peptide TVDGKRVPRDAGHPL (human); assay: as above
T16 peptide: TVDGKRVPRDAGHPL

[16] = molecular target: T17, AKR1A1 peptide RKTLADLQLEYLDLY (human); assay: as above
T17 peptide: RKTLADLQLEYLDLY

DEAD-box helicase 53 = molecular target: T18, DEAD-box helicase 53 (human, UniProt Q86TM3 1-631); assay: custom ELISA
T18 construct: Also the protein of the custom ELISA; also called DDX53; CAGE

kinesin family member C3 = molecular target: T19, kinesin family member C3 (human, UniProt Q9BVG8-5 1-687); assay: custom ELISA
T19 construct: Also the protein of the custom ELISA; also called KIFC3
T19 sequence (looked up): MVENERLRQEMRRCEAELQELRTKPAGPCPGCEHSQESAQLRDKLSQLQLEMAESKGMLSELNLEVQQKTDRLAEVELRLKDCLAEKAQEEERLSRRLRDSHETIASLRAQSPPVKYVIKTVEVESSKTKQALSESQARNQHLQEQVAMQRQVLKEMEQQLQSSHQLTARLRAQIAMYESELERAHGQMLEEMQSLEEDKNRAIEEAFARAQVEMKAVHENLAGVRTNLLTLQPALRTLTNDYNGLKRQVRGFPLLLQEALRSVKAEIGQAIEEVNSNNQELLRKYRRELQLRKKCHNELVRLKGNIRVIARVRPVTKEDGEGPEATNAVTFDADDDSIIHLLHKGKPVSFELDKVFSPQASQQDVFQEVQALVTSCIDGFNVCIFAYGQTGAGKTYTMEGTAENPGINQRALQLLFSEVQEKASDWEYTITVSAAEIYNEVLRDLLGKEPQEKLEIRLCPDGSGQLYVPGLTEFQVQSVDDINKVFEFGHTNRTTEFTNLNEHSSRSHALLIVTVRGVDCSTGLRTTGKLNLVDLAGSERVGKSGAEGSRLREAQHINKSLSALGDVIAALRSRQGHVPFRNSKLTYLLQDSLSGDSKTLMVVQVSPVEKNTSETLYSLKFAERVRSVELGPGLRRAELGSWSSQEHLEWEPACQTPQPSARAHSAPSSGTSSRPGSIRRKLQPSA

[17] = molecular target: T20, aldo-keto reductase family 1 member A1 (human, UniProt P14550 1-325); assay: custom ELISA
T20 construct: Also the protein of the custom ELISA; also called AKR1A1
T20 sequence (looked up): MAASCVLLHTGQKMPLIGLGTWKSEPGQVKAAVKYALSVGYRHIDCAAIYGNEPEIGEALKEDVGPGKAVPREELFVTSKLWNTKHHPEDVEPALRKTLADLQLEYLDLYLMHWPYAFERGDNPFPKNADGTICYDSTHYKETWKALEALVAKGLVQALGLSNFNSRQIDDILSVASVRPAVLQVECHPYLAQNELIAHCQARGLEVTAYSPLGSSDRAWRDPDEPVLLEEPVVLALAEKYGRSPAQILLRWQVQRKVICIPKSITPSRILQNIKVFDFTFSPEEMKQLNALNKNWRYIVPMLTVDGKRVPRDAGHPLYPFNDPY

[18] = molecular target: T21, microtubule associated scaffold protein 2 (human, UniProt Q5JR59-3 1-348); assay: custom ELISA
T21 construct: Also the protein of the custom ELISA; also called MTUS2; microtubule associated tumor suppressor candidate 2
T21 sequence (looked up): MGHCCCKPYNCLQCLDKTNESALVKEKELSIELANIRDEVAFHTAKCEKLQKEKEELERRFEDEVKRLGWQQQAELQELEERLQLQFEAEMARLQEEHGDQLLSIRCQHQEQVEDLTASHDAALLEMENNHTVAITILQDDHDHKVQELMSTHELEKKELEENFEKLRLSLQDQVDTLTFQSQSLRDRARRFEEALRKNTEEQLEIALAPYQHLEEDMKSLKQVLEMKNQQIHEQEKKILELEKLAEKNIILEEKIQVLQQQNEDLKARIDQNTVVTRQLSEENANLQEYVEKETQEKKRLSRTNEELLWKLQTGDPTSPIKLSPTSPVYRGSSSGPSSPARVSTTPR

[19] = molecular target: T22, peptidylprolyl isomerase like 1 (human, UniProt Q9Y3C6 1-166); assay: custom ELISA
T22 construct: Also the protein of the custom ELISA; also called PPIL1
T22 sequence (looked up): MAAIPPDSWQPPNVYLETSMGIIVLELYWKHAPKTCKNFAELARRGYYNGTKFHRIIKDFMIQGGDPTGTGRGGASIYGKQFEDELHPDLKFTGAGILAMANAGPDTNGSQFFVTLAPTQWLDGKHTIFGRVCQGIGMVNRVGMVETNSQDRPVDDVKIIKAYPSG

[20] = molecular target: T23, magnesium dependent phosphatase 1 (human, UniProt Q86V88 1-176); assay: custom ELISA
T23 construct: Also the protein of the custom ELISA; also called MDP1

[21] = molecular target: T24, phosphoribosylglycinamide formyltransferase, phosphoribosylglycinamide synthetase, … (human, UniProt P22102-2 1-433); assay: custom ELISA
T24 construct: Also the protein of the custom ELISA; also called GART
T24 sequence (looked up): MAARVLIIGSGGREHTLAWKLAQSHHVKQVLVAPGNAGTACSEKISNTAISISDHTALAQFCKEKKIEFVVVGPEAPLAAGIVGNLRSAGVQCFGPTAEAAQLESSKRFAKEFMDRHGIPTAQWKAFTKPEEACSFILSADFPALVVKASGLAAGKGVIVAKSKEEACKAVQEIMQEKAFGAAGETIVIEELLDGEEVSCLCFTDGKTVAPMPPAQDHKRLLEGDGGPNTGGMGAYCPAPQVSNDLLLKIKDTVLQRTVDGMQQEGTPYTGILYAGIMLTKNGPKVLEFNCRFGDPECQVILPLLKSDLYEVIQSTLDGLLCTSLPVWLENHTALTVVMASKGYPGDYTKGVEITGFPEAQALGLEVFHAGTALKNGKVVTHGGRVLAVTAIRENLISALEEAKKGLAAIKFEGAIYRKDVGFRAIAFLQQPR

[22] = molecular target: T25, DDX53 peptide RIFGNREMKAKAKAA (human); assay: peptide microarray epitope mapping (binding stretch)
T25 peptide: RIFGNREMKAKAKAA

[23] = molecular target: T26, DDX53 peptide KVRIFGNREMKAKAK (human); assay: as above
T26 peptide: KVRIFGNREMKAKAK

[24] = molecular target: T27, DDX53 peptide SRGLDLNDVTHVYNY (human); assay: as above
T27 peptide: SRGLDLNDVTHVYNY

[25] = molecular target: T28, DDX53 peptide LKSGEKRLIPKPTCR (human); assay: as above
T28 peptide: LKSGEKRLIPKPTCR

[26] = molecular target: T29, DDX53 peptide HVYNYDFPRNIDVYV (human); assay: as above
T29 peptide: HVYNYDFPRNIDVYV

[27] = molecular target: T30, DDX53 peptide GLDLNDVTHVYNYDF (human); assay: as above
T30 peptide: GLDLNDVTHVYNYDF

[28] = molecular target: T31, DDX53 peptide SGEKRLIPKPTCRFK (human); assay: as above
T31 peptide: SGEKRLIPKPTCRFK

[29] = molecular target: T32, DDX53 peptide EAKVRIFGNREMKAK (human); assay: as above
T32 peptide: EAKVRIFGNREMKAK

T18 sequence (Q86TM3 whole entry): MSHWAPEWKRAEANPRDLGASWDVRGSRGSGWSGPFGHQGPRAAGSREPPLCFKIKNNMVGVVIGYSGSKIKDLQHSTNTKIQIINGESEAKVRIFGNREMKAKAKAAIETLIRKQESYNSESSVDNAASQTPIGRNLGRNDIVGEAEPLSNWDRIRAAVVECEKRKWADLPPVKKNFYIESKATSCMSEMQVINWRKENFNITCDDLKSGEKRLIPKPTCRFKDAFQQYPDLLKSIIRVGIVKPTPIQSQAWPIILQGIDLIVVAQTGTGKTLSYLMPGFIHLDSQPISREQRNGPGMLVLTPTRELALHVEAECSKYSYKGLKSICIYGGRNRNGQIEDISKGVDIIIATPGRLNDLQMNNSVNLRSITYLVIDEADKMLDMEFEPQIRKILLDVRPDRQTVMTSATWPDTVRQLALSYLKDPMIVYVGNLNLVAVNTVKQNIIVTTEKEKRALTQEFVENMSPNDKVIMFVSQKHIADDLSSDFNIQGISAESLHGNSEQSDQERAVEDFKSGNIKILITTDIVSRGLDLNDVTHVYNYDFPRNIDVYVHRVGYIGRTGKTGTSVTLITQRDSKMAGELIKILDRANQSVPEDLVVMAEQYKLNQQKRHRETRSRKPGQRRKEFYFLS
T23 sequence (Q86V88 whole entry): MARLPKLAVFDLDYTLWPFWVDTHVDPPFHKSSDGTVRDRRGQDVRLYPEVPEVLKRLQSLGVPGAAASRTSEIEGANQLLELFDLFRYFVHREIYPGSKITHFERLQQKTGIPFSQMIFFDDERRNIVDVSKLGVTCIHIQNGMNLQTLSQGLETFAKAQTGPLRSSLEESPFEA

binding result [1]: binds
binding result [2]: binds
binding result [3]: binds
binding result [4]: binds
binding result [5]: binds
binding result [6]: binds
binding result (aminoacylase 3): binds
B1: recombinant antibody P1-F6 (antibody, V domains shown)
VH: QVPLKESGPALVKPTRTLTLTCTFSGFSLSTNGVSVGWIRQPPGKALDWLALIYWNDDKRYSPSLKNRLTITKDTSKNLVVLRMTNMDPVDTATYYCAHRPIASSRDGFDYWGQGTLVTVSS
VL: DIQMTQFPSTLSASVGETVTISCRASQSVSGWLAWYQQKPGKAPKLLMYKASALENGVPSRFSGSGSGTEFTLTISSLQPDDFATYYCQQYNGFPFTFGPGTKVDIN
notes: also called clone P1-F6

binding result [7]: binds
binding result [8]: binds
binding result [9]: binds
binding result [10]: binds
binding result [11]: binds
binding result [12]: binds
binding result [13]: binds
binding result [14]: binds
binding result [15]: binds
binding result [16]: binds
binding result (DEAD-box helicase 53): no binding
binding result (kinesin family member C3): no binding
binding result [17]: binds
binding result [18]: no binding
binding result [19]: no binding
binding result [20]: no binding
binding result (aminoacylase 3): no binding
binding result [21]: no binding
B2: recombinant antibody P3-F1 (antibody, V domains shown)
VH: QVQLVESGPTLVKPTQTLTVTCTFSGFSLNTRAVGVGWIRQPPGGALEWLALVYWDDDKRYSPSLKNRLTITKDTSRNQVVLTLTNVAPVDTGTYYCSHHRLTDGRLRWGQGTLVTVSS
VL: QVQLVQSPGTLSLSPGERATLSCRASQSITSSYLAWYQQKFGQAPRLLIYRASNRATGIPDRFSGSGSGTDFTLTISSLESEDFAVYYCQQYDTSPWTFGQGTKVEIK
notes: also called clone P3-F1

binding result [22]: binds
binding result [23]: binds
binding result [24]: binds
binding result [25]: binds
binding result [26]: binds
binding result [27]: binds
binding result [28]: binds
binding result [29]: binds
binding result (DEAD-box helicase 53): binds
B3: recombinant antibody P1-B4 (antibody, V domains shown)
VH: QVQLVESGPEVKKPGASVKVSCKASGYTFTSYGISWVRQAPGQGLEWMGWISVYKSDTNDAQKFQGRVTMTTDTSTSTAYMELRSLRSDDTAVYYCARSRGIVGSTLDDNWGQGTLVTVSS
VL: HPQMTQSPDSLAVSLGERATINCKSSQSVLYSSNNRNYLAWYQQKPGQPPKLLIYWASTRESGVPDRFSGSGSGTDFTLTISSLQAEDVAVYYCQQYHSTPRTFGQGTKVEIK
notes: also called clone P1-B4
